{"source": "patent US20230106247A1", "about": "(L AND L BIO CO LTD NINGBO CHINA, published 2023)", "binders": {"B1": {"name": "human-murine chimeric antibody mab14c (antibody, human IgG4 S228P, kappa, V domains shown)", "VH": "QVHLQQPGAELVKPGASVKLSCKASGYNFNIYWINWVKQRPGQGLEWIGNIYPSSISTNYNEKFKTKATLTVDKSSNTVYMQFSSLTSEDSAVYYCARSEGTYYGGRYEGDWFGYWGQGTLVTVSA", "VL": "DIQMTQTTSSLSASLGDRVTISCRASQDIRNYLNWYQQKPDGTVKLLIYFTSTLHSGVPSRFSGSGSGTDYSLTISNLEQEDIATYFCQQGNTLPWTFGGGTKLEIKR", "notes": "hIgG4, κ"}}, "key": {"human Sirpα-V2-his": {"target": "human Sirpα-V2-his (human)", "sequence (chain, as listed by the source)": "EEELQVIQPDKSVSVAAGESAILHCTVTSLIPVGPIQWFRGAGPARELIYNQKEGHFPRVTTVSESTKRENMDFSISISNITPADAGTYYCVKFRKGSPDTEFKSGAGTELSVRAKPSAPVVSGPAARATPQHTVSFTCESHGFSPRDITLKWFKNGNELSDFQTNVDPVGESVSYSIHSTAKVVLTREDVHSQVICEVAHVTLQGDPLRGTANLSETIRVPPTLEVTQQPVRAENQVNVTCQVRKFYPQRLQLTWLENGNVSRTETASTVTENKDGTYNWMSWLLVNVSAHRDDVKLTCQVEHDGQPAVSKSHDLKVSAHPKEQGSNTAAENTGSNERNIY", "experiment": "ELISA", "experimental": "(§1) Different antigens (recombinant proteins) such as the human Sirpα-V1-hFc, Sirpα-V1-his, Sirpα-V2-his, Sirpβ-his, Sirpγ-his, monkey Sirpα-his (cynoSirpα-his) or NOD-mSirpα-his described in Example 1 were diluted with a PBS buffer at pH7.4 to concentrations of 1 μg/mL, 2 μg/mL or 5 μg/mL, added into a 96-well ELISA plate (Corning, CLS3590-100EA) at a volume of 50 μL/well, and placed in an incubator at 37° C. for 2 hours. After the liquid was discarded, the wells were added with a blocking solution of 5% skimmed milk (skimmed milk powder available from Bright Dairy) diluted with PBS at 230 μL/well, and incubated in an incubator at 37° C. for 3 hours, or placed overnight at 4° C. (for 16-18 hours) for blocking. […] The plated was washed with PBST for 5 times, then added with 50 μL/well of TMB chromogenic substrate (KPL, Cat #: 52-00-03), incubated at room temperature for 10-15 min, added with 50 μL/well of 1 M H₂SO₄ to stop the reaction, and read by a […] Go microplate reader (ThermoFisher, Cat #: 51119200) for the absorbance value at 450 nm, and then a clone with high binding activity was selected or a EC₅₀ value was calculated according to the OD value. […]"}, "human Sirpα-V1-his [1]": {"target": "T1, human Sirpα-V1-his (human, UniProt P78324 31-373)", "T1 construct": "range 31-373; Bought (Sino Biological 11612-H08H) or expressed in-house; also called hSirpα-V1; hSirpα-V1-his", "experiment": "ELISA", "experimental": "as §1"}, "Cyno Sirpα L932": {"target": "T2, Cyno Sirpα L932 (cynomolgus)", "T2 chain": "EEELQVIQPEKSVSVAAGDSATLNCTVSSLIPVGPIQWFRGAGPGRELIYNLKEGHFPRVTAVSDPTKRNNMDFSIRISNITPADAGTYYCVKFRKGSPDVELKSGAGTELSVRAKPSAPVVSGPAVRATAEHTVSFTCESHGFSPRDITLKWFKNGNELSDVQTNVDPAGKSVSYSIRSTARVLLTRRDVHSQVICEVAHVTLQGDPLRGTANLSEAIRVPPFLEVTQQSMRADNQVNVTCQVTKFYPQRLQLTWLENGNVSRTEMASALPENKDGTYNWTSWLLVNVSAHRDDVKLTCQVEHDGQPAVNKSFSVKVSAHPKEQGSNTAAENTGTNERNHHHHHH", "experiment": "ELISA"}, "Cyno Sirpα L936": {"target": "T3, Cyno Sirpα L936 (cynomolgus)", "T3 construct": "also called RB3-3; Cyno Sirpα polymorphism 3 (L936)", "T3 chain": "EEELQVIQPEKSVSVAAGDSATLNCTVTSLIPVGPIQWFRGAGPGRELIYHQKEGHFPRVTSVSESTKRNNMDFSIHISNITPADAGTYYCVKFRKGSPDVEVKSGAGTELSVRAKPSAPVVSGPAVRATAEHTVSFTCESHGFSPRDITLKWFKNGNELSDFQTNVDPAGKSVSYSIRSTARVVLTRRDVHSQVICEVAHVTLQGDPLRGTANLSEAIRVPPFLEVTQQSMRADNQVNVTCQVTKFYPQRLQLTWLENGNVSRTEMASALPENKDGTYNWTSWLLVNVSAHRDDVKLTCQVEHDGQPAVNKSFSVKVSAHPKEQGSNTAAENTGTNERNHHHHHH", "experiment": "ELISA"}, "Cyno Sirpα L937": {"target": "T4, Cyno Sirpα L937 (cynomolgus)", "T4 construct": "also called RB3-5; Cyno Sirpα polymorphism 4 (L937)", "T4 chain": "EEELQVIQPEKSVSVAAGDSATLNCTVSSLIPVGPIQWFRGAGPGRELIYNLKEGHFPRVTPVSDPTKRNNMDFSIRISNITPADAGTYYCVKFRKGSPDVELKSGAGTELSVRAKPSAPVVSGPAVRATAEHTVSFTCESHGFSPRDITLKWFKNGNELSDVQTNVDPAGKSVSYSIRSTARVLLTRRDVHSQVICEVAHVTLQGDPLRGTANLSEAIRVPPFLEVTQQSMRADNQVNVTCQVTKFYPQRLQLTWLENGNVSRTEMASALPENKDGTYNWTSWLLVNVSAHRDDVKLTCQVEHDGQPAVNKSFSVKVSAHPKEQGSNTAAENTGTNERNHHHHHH", "experiment": "ELISA"}, "Cyno Sirpα L933": {"target": "T5, Cyno Sirpα L933 (cynomolgus)", "T5 construct": "extracellular domain; also called Cyno Sirpα polymorphism 2 (L933)", "experiment": "ELISA"}, "human Sirpα-V1-his [2]": {"target": "T1, human Sirpα-V1-his", "experiment": "ELISA", "remark": "listed apart in the source"}, "[3]": {"target": "T6, human T cells (expressing Sirpγ) (human, UniProt Q9P1W8 29-387)", "T6 construct": "whole, on cells; The target as printed is the cell; also called human PBMCs (T cells)", "T6 sequence (Q9P1W8 29-387)": "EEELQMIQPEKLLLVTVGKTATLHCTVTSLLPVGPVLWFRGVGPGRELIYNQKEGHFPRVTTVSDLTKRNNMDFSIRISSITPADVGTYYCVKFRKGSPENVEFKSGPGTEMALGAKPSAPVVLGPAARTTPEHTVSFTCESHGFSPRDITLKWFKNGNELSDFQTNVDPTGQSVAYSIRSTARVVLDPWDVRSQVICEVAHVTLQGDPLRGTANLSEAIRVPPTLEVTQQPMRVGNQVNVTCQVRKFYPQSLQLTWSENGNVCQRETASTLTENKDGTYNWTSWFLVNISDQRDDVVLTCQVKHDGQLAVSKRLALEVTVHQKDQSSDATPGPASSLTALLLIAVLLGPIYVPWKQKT", "experiment": "flow cytometry on PBMC"}, "[4]": {"target": "T7, human Sirpα-V1 on CHO-K1 cells (CHO-K1 hSirpα+ cell line) (human, UniProt P78324 31-504)", "T7 construct": "whole, on cells; also called hSirpα-v1+ cell strain", "experiment": "cell ELISA on CHO-K1 hSirpα+ cells", "text": "The readings on a microplate reader (MultiskanGO Thermo, Model 51119200) were subjected to data analysis by GraphPad prism 5.\nThe light and heavy chain variable region sequences of the aforementioned antibody of the present disclosure and the constant regions of different IgG types, for example human IgG1 (hIgG1), human IgG2 (hIgG2), human IgG3 (hIgG3) or human IgG4 (hIgG4), human light chain κ and λ types; murine mIgG1, mIgG2 or mIgG3, murine light chain κ and λ types, etc. were recombined, expressed and purified to obtain an entire human-murine chimeric antibody and a murine antibody."}, "human Sirpα-V1-his [5]": {"target": "T1, human Sirpα-V1-his", "experiment": "blocking ELISA, competitor CD47-hFc", "experimental": "(§2) The recombinant proteins such as human Sirpα-V1-hFc/Sirpα-V1-his were diluted to concentrations of 5 μg/mL or 2 μg/mL respectively with a PBS buffer at pH 7.4, and then added into a 96-well ELISA plate (Corning, CLS3590-100EA) at a volume of 50 μL/well, and placed in an incubator at 37° C. for 2 hours. After the liquid was discarded, the wells were added with a blocking solution of 5% skimmed milk (skimmed milk powder available from Bright Dairy) diluted with PBS at 230 μL/well, and incubated in an incubator at 37° C. for 3 hours, or placed overnight at 4° C. (for 16-18 hours) for blocking. […] The plate was washed for 5 times, added with 50 μL/well of streptavidin-HRP (GenScript, M00091) or anti-his-HRP secondary antibody (GenScript, A00612) diluted at 1:1000, incubated at 37° C. for 1 hour, and then washed with PBST for 5 times. Each well was added with 50 μL of TMB (Surmodic, Cat #: TTMB-1000-01) for color development, and added with 50 μL/well of 1 M H₂SO₄ to stop the reaction. The readings on a microplate reader (MultiskanGO Thermo, Model 51119200) were subjected to data analysis by GraphPad prism 5. […]"}, "human Sirpα-V1-hFc [6]": {"target": "T8, human Sirpα-V1-hFc (human, UniProt P78324 31-373)", "T8 construct": "range 31-373; also called hSirpα (dimer); hSirpα-V1-hFc (dimer); not shown: human IgG1 Fc region at the C-terminus", "experiment": "blocking ELISA, competitor CD47-his", "experimental": "as §2"}, "human Sirpα-V1-his [7]": {"target": "T1, human Sirpα-V1-his", "experiment": "blocking ELISA, competitor CD47-hFc", "experimental": "(§3) The recombinant proteins such as human Sirpα-V1-hFc/Sirpα-V1-his were diluted to concentrations of 5 μg/mL or 2 μg/mL respectively with a PBS buffer at pH 7.4, and then added into a 96-well ELISA plate (Corning, CLS3590-100EA) at a volume of 50 μL/well, and placed in an incubator at 37° C. for 2 hours. After the liquid was discarded, the wells were added with a blocking solution of 5% skimmed milk (skimmed milk powder available from Bright Dairy) diluted with PBS at 230 μL/well, and incubated in an incubator at 37° C. for 3 hours, or placed overnight at 4° C. (for 16-18 hours) for blocking. […] The plate was washed for 5 times, added with 50 μL/well of streptavidin-HRP (GenScript, M00091) or anti-his-HRP secondary antibody (GenScript, A00612) diluted at 1:1000, incubated at 37° C. for 1 hour, and then washed with PBST for 5 times. Each well was added with 50 μL of TMB (Surmodic, Cat #: TTMB-1000-01) for color development, and added with 50 μL/well of 1 M H₂SO₄ to stop the reaction. The readings on a microplate reader (MultiskanGO Thermo, Model 51119200) were subjected to data analysis by GraphPad prism 5.", "remark": "listed apart in the source"}, "human Sirpα-V1-hFc [8]": {"target": "T8, human Sirpα-V1-hFc", "experiment": "blocking ELISA, competitor CD47-his", "experimental": "as §3", "remark": "listed apart in the source"}}, "note": "Where two headings read alike, the source gives them in different places.", "data": [{"binder": "B1", "values": [{"measurement": "EC50", "setting": "human Sirpα-V2-his", "value": 0.14, "unit": "nM"}, {"measurement": "EC50", "setting": "human Sirpα-V1-his [1]", "value": 0.16, "unit": "nM"}, {"measurement": "EC50", "setting": "Cyno Sirpα L932", "value": 0.1, "unit": "nM"}, {"measurement": "EC50", "setting": "Cyno Sirpα L936", "value": 0.099, "unit": "nM"}, {"measurement": "EC50", "setting": "Cyno Sirpα L937", "value": 0.099, "unit": "nM"}, {"measurement": "EC50", "setting": "Cyno Sirpα L933", "value": 0.14, "unit": "nM"}, {"measurement": "EC50", "setting": "human Sirpα-V1-his [2]", "value": 0.093, "unit": "nM"}, {"measurement": "binding result", "setting": "[3]", "value": "no binding (tested: 10 µg/mL)"}, {"measurement": "EC50", "setting": "[4]", "value": 0.29, "unit": "nM"}, {"measurement": "IC50", "setting": "human Sirpα-V1-his [5]", "value": 5.54, "unit": "nM"}, {"measurement": "IC50", "setting": "human Sirpα-V1-hFc [6]", "value": 5.7, "unit": "nM"}, {"measurement": "IC50", "setting": "human Sirpα-V1-his [7]", "value": 9.98, "unit": "nM"}, {"measurement": "IC50", "setting": "human Sirpα-V1-hFc [8]", "value": 5.48, "unit": "nM"}]}]}
